One block for each binder: values may come before it.
Assays:
[1] = biological target: T1, mouse C5 (mouse, UniProt P06684 19-674; P06684 679-1680); test: SPR, anti-Fc capture, pH 7.4; pH 7.4
T1 construct: also called purified mouse C5
Procedure: Briefly, anti-human Fc (KPL, catalogue number: 01-10-20) diluted to 0.1 mg/mL in 10 mM sodium acetate pH 5.0, was immobilized on two flow cells of a CM5 chip for 8 minutes by amine coupling. The antibodies were diluted to 0.25 μg/mL in running buffer (HBS-EP; 0.01 M HEPES pH 7.4, 0.15 M NaCl, 3 mM EDTA, 0.005% v/v Surfactant P20; GE Life Sciences, catalogue number: BR1001-88). The diluted antibody was then injected on one flow cell followed by an injection of 6 nM mouse C5 on both cells. The second flow cell was used as a reference surface. The binding was evaluated at pH 7.4 and pH 6.0. The surface was regenerated each time with 20 mM HCl, 0.01% P20. The data was processed with a 1:1 Langmuir model using BIAevaluation 4.1 software with ‘double referencing’.

[2] = biological target: complement component C1q (UniProt P02745 23-245; P02746 28-253; P02747 29-245); test: biolayer interferometry
[3] = biological target: T2, Human FcγRIIa (CD32a) (human, UniProt P12318 36-218, limits assumed); test: ELISA, multimeric antibody immune complexes on His-tagged FcγRIIa; reference not named (IgG1 control implied)
T2 construct: Bought reagent; not shown: 6x histidine tag
T2 sequence (looked up): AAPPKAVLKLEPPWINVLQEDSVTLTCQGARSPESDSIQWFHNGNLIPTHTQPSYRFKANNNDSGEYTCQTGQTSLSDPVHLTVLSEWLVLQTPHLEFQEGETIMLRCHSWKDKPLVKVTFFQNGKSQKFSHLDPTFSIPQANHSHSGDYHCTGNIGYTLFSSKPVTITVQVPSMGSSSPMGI

[4] = biological target: T3, human neonatal Fc receptor (FcRn) (human, UniProt P55899 24-297; P61769 21-119, limits assumed); test: SPR, F(ab')2 capture, pH 6.0
T3 construct: also called hFcRn; human FcRn
Source text: The data were processed with a 1:1 Langmuir model using BIAevaluation 4.1 software (BIAcore AB, Uppsala, Sweden) with ‘double referencing’.

[5] = biological target: T4, Human FcγRIIIb (CD16b) (human, UniProt O75015 17-200, limits assumed); test: SPR, antibody immobilized, monomeric FcγR injected, steady state, pH 7.4; SPR, monomeric FcγR
T4 construct: Bought reagent; not shown: 6x histidine tag

[6] = biological target: T5, Human FcγRIIb/c (CD32b/c) (human, UniProt P31994 46-217, limits assumed); test: as above
T5 construct: Bought reagent; not shown: 6x histidine tag
T5 sequence (looked up): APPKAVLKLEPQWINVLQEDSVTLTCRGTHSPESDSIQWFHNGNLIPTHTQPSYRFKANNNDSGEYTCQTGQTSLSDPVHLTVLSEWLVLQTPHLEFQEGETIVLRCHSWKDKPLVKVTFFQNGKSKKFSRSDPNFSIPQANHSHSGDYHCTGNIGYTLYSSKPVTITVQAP

[7] = biological target: T6, Human FcγRI (CD64) (human, UniProt P12314 16-288, limits assumed); test: as above
T6 construct: Bought reagent; also called FcγR1; not shown: 6x histidine tag

[8] = biological target: T7, Human FcγRIIIa (CD16a) (human, UniProt P08637 17-208, limits assumed); test: as above
T7 construct: Bought reagent; not shown: 6x histidine tag

[9] = biological target: T2, Human FcγRIIa (CD32a); test: SPR, antibody immobilized, monomeric FcγR injected, steady state, pH 7.4
Procedure: (§1) A second flow cell was used as a reference surface. Concentrations of FcγRs diluted in running buffer (HBS-EP, pH 7.4) were injected on both cells. The surface was regenerated each cycle with 20 mM HCl, 0.01% P20. The data was analyzed using a steady state affinity model in BIAevaluation 4.1 software (BIAcore AB, Uppsala, Sweden) with ‘double referencing’.

[10] = biological target: T6, Human FcγRI (CD64); test: SPR, antibody immobilized, single cycle kinetics, pH 7.4; Table 16 cell under the head KD [µM]
Procedure: The antibody was diluted in 10 mM sodium acetate at pH 5.0 and directly immobilized on one flow cell of a CM5 chip by amine coupling. A second flow cell was used as a reference surface. Concentrations of FcγR1 diluted in running buffer (HBS-EP, pH 7.4) were injected on both cells. This assay required no regeneration. The data was analyzed using a titration kinetics 1:1 model in BIAevaluation 4.1 (Biacore AB, Uppsala, Sweden) software with ‘double referencing’.

[11] = biological target: T4, Human FcγRIIIb (CD16b); test: SPR, antibody immobilized, monomeric FcγR injected, steady state, pH 7.4
Procedure: as §1

[12] = biological target: T5, Human FcγRIIb/c (CD32b/c); test: as above
Procedure: as §1

[13] = biological target: T7, Human FcγRIIIa (CD16a); test: as above
Procedure: as §1

[14] = biological target: T8, human hypercalcemia of malignancy peptide, amino acid residues 1-34 (human, UniProt P12272 37-70); test: immunofluorescent staining of UV-resin spot slides
T8 construct: range 1-34; Negative control material on UV-resin spot slides; also called PTHrP 1-34

[15] = biological target: T9, human complement component C5 (human, UniProt P01031 19-673; P01031 678-1676); test: SPR, pH 7.4
T9 construct: mature; Native purified protein; also called human C5; hC5

[16] = biological target: T9, human complement component C5; test: SPR, pH 6.0
[17] = biological target: T9, human complement component C5; test: SPR

T1 sequence (P06684 19-674 limits assumed, chain 1 of 2): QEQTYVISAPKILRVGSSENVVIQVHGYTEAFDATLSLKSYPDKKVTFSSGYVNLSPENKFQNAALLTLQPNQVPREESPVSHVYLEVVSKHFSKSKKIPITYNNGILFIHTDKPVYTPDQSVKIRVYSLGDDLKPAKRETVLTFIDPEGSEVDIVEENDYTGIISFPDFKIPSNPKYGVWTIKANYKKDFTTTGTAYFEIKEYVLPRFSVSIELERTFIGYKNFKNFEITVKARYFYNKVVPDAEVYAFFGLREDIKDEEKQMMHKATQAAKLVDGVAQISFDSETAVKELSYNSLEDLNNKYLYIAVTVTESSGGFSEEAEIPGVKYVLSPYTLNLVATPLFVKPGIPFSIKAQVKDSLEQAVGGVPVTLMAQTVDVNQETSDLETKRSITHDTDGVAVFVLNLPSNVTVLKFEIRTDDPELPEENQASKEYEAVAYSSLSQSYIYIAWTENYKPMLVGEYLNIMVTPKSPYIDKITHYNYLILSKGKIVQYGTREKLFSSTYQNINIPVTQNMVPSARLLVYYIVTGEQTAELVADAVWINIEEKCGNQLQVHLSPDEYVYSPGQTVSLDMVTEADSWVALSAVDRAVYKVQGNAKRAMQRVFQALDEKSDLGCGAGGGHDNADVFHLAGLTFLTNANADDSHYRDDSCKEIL
T1 sequence (P06684 679-1680 limits assumed, chain 2 of 2): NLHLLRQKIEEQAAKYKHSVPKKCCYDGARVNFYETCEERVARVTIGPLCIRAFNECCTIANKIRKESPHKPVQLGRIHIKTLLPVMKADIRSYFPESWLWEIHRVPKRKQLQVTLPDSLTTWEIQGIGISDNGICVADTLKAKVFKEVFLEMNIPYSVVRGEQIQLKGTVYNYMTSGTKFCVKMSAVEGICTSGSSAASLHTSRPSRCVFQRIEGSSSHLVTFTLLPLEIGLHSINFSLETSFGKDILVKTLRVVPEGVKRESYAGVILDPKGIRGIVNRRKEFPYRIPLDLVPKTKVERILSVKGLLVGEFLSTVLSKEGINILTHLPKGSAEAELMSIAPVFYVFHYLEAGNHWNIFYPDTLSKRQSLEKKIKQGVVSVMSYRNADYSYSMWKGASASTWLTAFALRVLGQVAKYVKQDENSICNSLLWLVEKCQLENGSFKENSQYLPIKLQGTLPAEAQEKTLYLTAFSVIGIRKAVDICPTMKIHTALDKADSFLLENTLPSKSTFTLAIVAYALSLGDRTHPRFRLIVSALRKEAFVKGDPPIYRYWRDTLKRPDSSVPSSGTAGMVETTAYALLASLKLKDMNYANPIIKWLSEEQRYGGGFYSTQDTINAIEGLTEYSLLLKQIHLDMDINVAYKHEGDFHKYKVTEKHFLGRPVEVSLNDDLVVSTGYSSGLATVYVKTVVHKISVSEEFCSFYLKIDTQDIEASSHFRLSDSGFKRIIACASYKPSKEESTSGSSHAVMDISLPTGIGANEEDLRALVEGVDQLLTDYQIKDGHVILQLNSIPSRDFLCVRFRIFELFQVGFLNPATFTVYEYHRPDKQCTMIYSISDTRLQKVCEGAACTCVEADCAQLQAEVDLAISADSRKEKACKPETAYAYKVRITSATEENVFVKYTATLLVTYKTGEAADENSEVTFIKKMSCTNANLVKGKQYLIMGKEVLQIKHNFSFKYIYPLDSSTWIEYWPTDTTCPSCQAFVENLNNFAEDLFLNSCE
T4 sequence (O75015 17-200 limits assumed): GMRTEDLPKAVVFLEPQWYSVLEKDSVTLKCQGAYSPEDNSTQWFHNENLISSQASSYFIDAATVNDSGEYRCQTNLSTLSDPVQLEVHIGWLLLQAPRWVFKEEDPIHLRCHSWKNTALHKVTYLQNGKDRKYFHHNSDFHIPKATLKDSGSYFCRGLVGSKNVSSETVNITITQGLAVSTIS
T6 sequence (P12314 16-288 limits assumed): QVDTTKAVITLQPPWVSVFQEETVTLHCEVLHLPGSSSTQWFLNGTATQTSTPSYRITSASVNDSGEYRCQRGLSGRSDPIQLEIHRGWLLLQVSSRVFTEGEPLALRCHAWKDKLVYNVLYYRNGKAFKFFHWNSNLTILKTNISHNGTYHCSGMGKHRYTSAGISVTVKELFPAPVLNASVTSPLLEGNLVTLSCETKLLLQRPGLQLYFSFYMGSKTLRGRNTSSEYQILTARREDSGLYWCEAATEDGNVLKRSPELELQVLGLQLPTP
T7 sequence (P08637 17-208 limits assumed): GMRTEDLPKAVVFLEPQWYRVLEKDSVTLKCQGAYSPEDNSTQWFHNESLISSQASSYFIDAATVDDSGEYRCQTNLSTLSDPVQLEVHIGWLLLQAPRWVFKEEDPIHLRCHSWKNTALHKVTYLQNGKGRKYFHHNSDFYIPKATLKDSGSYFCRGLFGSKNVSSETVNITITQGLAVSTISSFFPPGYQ
complement component C1q, sequence (P02745 23-245, chain 1 of 3): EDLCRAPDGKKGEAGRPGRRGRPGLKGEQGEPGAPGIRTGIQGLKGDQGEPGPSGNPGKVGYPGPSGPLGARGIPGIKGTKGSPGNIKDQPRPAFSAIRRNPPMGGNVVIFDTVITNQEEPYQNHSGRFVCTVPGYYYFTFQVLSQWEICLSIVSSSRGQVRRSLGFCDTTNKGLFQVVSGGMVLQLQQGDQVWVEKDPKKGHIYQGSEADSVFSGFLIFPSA
complement component C1q, sequence (P02746 28-253, chain 2 of 3): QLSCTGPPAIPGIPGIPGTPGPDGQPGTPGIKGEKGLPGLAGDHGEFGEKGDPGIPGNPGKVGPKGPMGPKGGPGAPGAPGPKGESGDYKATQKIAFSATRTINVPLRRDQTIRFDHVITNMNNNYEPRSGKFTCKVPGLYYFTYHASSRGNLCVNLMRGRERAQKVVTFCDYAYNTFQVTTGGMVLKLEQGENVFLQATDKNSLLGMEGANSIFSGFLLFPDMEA
complement component C1q, sequence (P02747 29-245, chain 3 of 3): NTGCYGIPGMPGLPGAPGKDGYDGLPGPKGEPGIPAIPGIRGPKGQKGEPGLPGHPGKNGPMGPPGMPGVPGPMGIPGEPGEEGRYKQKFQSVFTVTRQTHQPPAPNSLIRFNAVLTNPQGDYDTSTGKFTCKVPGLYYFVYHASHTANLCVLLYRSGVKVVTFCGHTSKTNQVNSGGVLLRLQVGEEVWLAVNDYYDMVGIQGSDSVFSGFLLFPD

B1: BHL006 (antibody, human IgG2, kappa)
heavy: QVQLQQPGAELVRPGTSVKLSCKASGYTFTSSWMHWVKQRPGQGLEWIGVIDPHDSYTNYNQKFKGKATLTVDTSSSTAYMQLSSLTSEDSAVYYCARGGGSSYNRYFDVWGTGTTVTVSSASTKGPSVFPLAPCSRSTSESTAALGCLVKDYFPEPVTVSWNSGALTSGVHTFPAVLQSSGLYSLSSVVTVPSSNFGTQTYTCNVDHKPSNTKVDKTVERKCCVECPPCPAPPVAGPSVFLFPPKPKDTLMISRTPEVTCVVVDVSQEDPEVQFNWYVDGVEVHNAKTKPREEQFNSTYRVVSVLTVLHQDWLNGKEYKCKVSNKGLPSSIEKTISKAKGQPREPQVYTLPPSQEEMTKNQVSLTCLVKGFYPSDIAVEWESNGQPENNYKTTPPVLDSDGSFFLYSRLTVDKSRWQEGNVFSCSVMHEALHNHYTQKSLSLSLGK
light: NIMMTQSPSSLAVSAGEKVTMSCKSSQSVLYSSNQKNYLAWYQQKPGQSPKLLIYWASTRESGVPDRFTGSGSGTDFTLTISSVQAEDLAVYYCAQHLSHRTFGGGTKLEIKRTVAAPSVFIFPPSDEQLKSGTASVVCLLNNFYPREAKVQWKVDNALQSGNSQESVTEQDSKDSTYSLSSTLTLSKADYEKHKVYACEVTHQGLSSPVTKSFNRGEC
notes: BHL011 with three histidine substitutions in the murine variable regions; also called pH-dependent variant of BHL011
Kd [1]: 3.49 nM | koff [1]: 0.00102 s⁻¹ | kon [1]: 293000 M⁻¹ s⁻¹

B3: BNJ441 (antibody, human IgG2, kappa)
heavy: QVQLVQSGAEVKKPGASVKVSCKASGHIFSNYWIQWVRQAPGQGLEWMGEILPGSGHTEYTENFKDRVTMTRDTSTSTVYMELSSLRSEDTAVYYCARYFFGSSPNWYFDVWGQGTLVTVSSASTKGPSVFPLAPCSRSTSESTAALGCLVKDYFPEPVTVSWNSGALTSGVHTFPAVLQSSGLYSLSSVVTVPSSNFGTQTYTCNVDHKPSNTKVDKTVERKCCVECPPCPAPPVAGPSVFLFPPKPKDTLMISRTPEVTCVVVDVSQEDPEVQFNWYVDGVEVHNAKTKPREEQFNSTYRVVSVLTVLHQDWLNGKEYKCKVSNKGLPSSIEKTISKAKGQPREPQVYTLPPSQEEMTKNQVSLTCLVKGFYPSDIAVEWESNGQPENNYKTTPPVLDSDGSFFLYSRLTVDKSRWQEGNVFSCSVLHEALHSHYTQKSLSLSLGK
light: DIQMTQSPSSLSASVGDRVTITCGASENIYGALNWYQQKPGKAPKLLIYGATNLADGVPSRFSGSGSGTDFTLTISSLQPEDFATYYCQNVLNTPLTFGQGTKVEIKRTVAAPSVFIFPPSDEQLKSGTASVVCLLNNFYPREAKVQWKVDNALQSGNSQESVTEQDSKDSTYSLSSTLTLSKADYEKHKVYACEVTHQGLSSPVTKSFNRGEC
notes: IgG2/G4, kappa; also called BNJ441 antibody; BNJ441 engineering batch
binding result [2]: no binding | fold weaker association [3]: 4 fold | fold increase in affinity compared to eculizumab [4]: ~10 fold | Kd [5]: 3.33 µM | Kd [6]: 8.09 µM | Kd [7]: 3.75 µM | Kd [8]: 7.23 µM | Kd [9]: 2310 nM

B4: h5G1.1-IgG1 (antibody)
heavy: not shown
light: DIQMTQSPSSLSASVGDRVTITCGASENIYGALNWYQQKPGKAPKLLIYGATNLADGVPSRFSGSGSGTDFTLTISSLQPEDFATYYCQNVLNTPLTFGQGTKVEIKRTVAAPSVFIFPPSDEQLKSGTASVVCLLNNFYPREAKVQWKVDNALQSGNSQESVTEQDSKDSTYSLSSTLTLSKADYEKHKVYACEVTHQGLSSPVTKSFNRGEC
notes: IgG1 isotype antibody with the same humanized variable region as eculizumab; light chain identical to that of eculizumab and BNJ441; also called h5G1.1-hG1; IgG1 isotype control
Kd [10]: 0.123 nM | Kd [9]: 800 nM | Kd [11]: 1890 nM | Kd [12]: 3.06 µM | Kd [13]: 850 nM

B5: BNJ441-FITC (antibody, human IgG2, kappa)
heavy: QVQLVQSGAEVKKPGASVKVSCKASGHIFSNYWIQWVRQAPGQGLEWMGEILPGSGHTEYTENFKDRVTMTRDTSTSTVYMELSSLRSEDTAVYYCARYFFGSSPNWYFDVWGQGTLVTVSSASTKGPSVFPLAPCSRSTSESTAALGCLVKDYFPEPVTVSWNSGALTSGVHTFPAVLQSSGLYSLSSVVTVPSSNFGTQTYTCNVDHKPSNTKVDKTVERKCCVECPPCPAPPVAGPSVFLFPPKPKDTLMISRTPEVTCVVVDVSQEDPEVQFNWYVDGVEVHNAKTKPREEQFNSTYRVVSVLTVLHQDWLNGKEYKCKVSNKGLPSSIEKTISKAKGQPREPQVYTLPPSQEEMTKNQVSLTCLVKGFYPSDIAVEWESNGQPENNYKTTPPVLDSDGSFFLYSRLTVDKSRWQEGNVFSCSVLHEALHSHYTQKSLSLSLGK
light: DIQMTQSPSSLSASVGDRVTITCGASENIYGALNWYQQKPGKAPKLLIYGATNLADGVPSRFSGSGSGTDFTLTISSLQPEDFATYYCQNVLNTPLTFGQGTKVEIKRTVAAPSVFIFPPSDEQLKSGTASVVCLLNNFYPREAKVQWKVDNALQSGNSQESVTEQDSKDSTYSLSSTLTLSKADYEKHKVYACEVTHQGLSSPVTKSFNRGEC
modifications: fluoresceinated (FITC); sites not stated
notes: also called fluoresceinated BNJ441
binding result [14]: no binding

Further lines, results first:

Kd [1]: 4.19 nM | koff [1]: 0.00109 s⁻¹ | kon [1]: 261000 M⁻¹ s⁻¹
B2: BHL009 (antibody, human IgG2, kappa)
heavy: QVQLQQPGAELVRPGTSVKLSCKASGYTFTSSWMHWVKQRPGQGLEWIGVIDPHDSYTNYNQKFKGKATLTVDTSSSTAYMQLSSLTSEDSAVYYCARGGGSSYNRYFDVWGTGTTVTVSSASTKGPSVFPLAPCSRSTSESTAALGCLVKDYFPEPVTVSWNSGALTSGVHTFPAVLQSSGLYSLSSVVTVPSSNFGTQTYTCNVDHKPSNTKVDKTVERKCCVECPPCPAPPVAGPSVFLFPPKPKDTLMISRTPEVTCVVVDVSQEDPEVQFNWYVDGVEVHNAKTKPREEQFNSTYRVVSVLTVLHQDWLNGKEYKCKVSNKGLPSSIEKTISKAKGQPREPQVYTLPPSQEEMTKNQVSLTCLVKGFYPSDIAVEWESNGQPENNYKTTPPVLDSDGSFFLYSRLTVDKSRWQEGNVFSCSVLHEALHSHYTQKSLSLSLGK
light: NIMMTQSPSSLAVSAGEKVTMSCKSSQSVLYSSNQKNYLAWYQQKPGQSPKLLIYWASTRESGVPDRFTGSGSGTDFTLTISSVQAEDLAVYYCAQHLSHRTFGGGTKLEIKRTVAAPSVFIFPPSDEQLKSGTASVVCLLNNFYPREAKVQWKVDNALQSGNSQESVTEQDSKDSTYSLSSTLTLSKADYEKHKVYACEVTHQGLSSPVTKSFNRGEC
notes: BHL006 with M428L, N434S in the human heavy chain constant region

binding result [2]: no binding | fold weaker association [3]: 8 fold | Kd [6]: 9.84 µM | Kd [9]: 2580 nM
B6: eculizumab (antibody, human IgG2, kappa)
heavy: QVQLVQSGAEVKKPGASVKVSCKASGYIFSNYWIQWVRQAPGQGLEWMGEILPGSGSTEYTENFKDRVTMTRDTSTSTVYMELSSLRSEDTAVYYCARYFFGSSPNWYFDVWGQGTLVTVSSASTKGPSVFPLAPCSRSTSESTAALGCLVKDYFPEPVTVSWNSGALTSGVHTFPAVLQSSGLYSLSSVVTVPSSNFGTQTYTCNVDHKPSNTKVDKTVERKCCVECPPCPAPPVAGPSVFLFPPKPKDTLMISRTPEVTCVVVDVSQEDPEVQFNWYVDGVEVHNAKTKPREEQFNSTYRVVSVLTVLHQDWLNGKEYKCKVSNKGLPSSIEKTISKAKGQPREPQVYTLPPSQEEMTKNQVSLTCLVKGFYPSDIAVEWESNGQPENNYKTTPPVLDSDGSFFLYSRLTVDKSRWQEGNVFSCSVMHEALHNHYTQKSLSLSLGK
light: DIQMTQSPSSLSASVGDRVTITCGASENIYGALNWYQQKPGKAPKLLIYGATNLADGVPSRFSGSGSGTDFTLTISSLQPEDFATYYCQNVLNTPLTFGQGTKVEIKRTVAAPSVFIFPPSDEQLKSGTASVVCLLNNFYPREAKVQWKVDNALQSGNSQESVTEQDSKDSTYSLSSTLTLSKADYEKHKVYACEVTHQGLSSPVTKSFNRGEC
notes: Humanized anti-human C5 antibody, hybrid human IgG2/G4 constant region, human kappa light chain; also called Ec293F

Kd [15]: 0.135 nM | Kd [16]: 374 nM | ratio of KD at pH 6.0/pH 7.4 [17]: 2770
B7: EHL004 (antibody, V domains shown)
VH: QVQLVQSGAEVKKPGASVKVSCKASGYIFSNYWIQWVRQAPGQGLEWMGEILPGSGHTEYTENFKDRVTMTRDTSTSTVYMELSSLRSEDTAVYYCARYFFGSSPNWYFDVWGQGTLVTVSS
VL: DIQMTQSPSSLSASVGDRVTITCGASENIYHALNWYQQKPGKAPKLLIYGATNLADGVPSRFSGSGSGTDFTLTISSLQPEDFATYYCQNVLNTPLTFGQGTKVEIK
notes: The VH cell prints only 'S57H'
